Holding throughout (type): biochemical
Series [1] relates to partially dsDNA substrates (18/38-mer). Put plainly: DNA helicase assay. The conditions noted are these: for DNA helicase activity: data not shown. An excerpt:
(§1) The helicase activity of DDX3wt and mutant forms was monitored by measuring the conversion of a double stranded (ds) DNA or RNA (labelled at the 5′-end of one strand with a 6-FAM fluorescent group) into single stranded (ss) nucleic acid. For the RNA helicase assay, a 18/36mer ds RNA oligonucleotide with both 3′ and 5′-protruding ss ends was used. For the DNA helicase assay, three different dsDNA substrates were used, all of them composed of the same 18mer oligonucleotide 5′-FAM labelled and three different 38 mer oligonucleotides with the sequence complementary to the 18 mer at different positions. Annealing of the 18 mer to each of the 38 mer generated the different DNA substrates shown in Fig. 5 A. A final concentration of 20 nM RNA or DNA substrate was used in the experiments, unless otherwise stated. The amounts of the different DDX3 proteins are indicated in the respective Figures.
Reactions were performed in 50 mM TrisHCl pH 7.5, 1 mM DTT, 0.2 mg/ml BSA, 5% glycerol and 1 mM ATP, 10 mM MgCl2 at 37°C degrees for 10′ and stopped by adding EDTA 50 mM pH 8. Products were separated on a native 7% PAGE […] at 5 W in TBE buffer with 0.1% SDS at 4°C for 2 hours for RNA substrates, 4 hours for DNA substrates. Substrates and products were quantified by laser scanning densitometry (Thyphoon-TRIO, GE Healthcare). For trap-assays, the enzyme and the RNA substrate were incubated on ice for 4 min, in the absence of ATP. Reactions were started by addition of ATP and a 50-fold molar excess (1 µM) of r(A)40 trap RNA oligonucleotide, followed by incubation at 37°C for the indicated times.

A short description of series [2]: ATPase activity assay ([γ-32P]ATP hydrolysis, TLC), steady-state kinetics. The conditions noted are these: for Intrinsic ability to hydrolyze ATP: absence of nucleic acid; for Stimulation of ATPase activity by nucleic acids: presence of both NA (RNA, DNA). The procedure:
(§2) The ATPase activity was determined, as previously described, by directly monitoring [γ-^32P] ATP hydrolysis by thin-layer chromatography (TLC). ATP (3000 Ci/mmol) as tracer, plus 1 mM of cold ATP, unless otherwise stated, and nucleic acids as indicated. Samples were incubated for 5 minutes at 25°C and dotted onto TLC sheets of polyethylenimine cellulose. The products were separated by ascending chromatography with 0.5 M KH2PO4 (pH 3.4). The intensities of the radioactive bands corresponding to ATP and Pi were quantified by densitometric scanning with PhosphoImager. For the stimulation of the ATPase activity, the ssDNA oligonucleotide oligo(dT)20 or the ssRNA oligonucleotide oligo (rU)20 were used. Time-course experiments were performed under the conditions described above. Samples were taken at different time points and processed as described above.
ATPase reactions were performed as described, in the presence of increasing amounts of nucleic acids and variable ATP concentrations. […] The relative -fold increase in the ATPase velocities 1−(vDNA/v) as a function of the nucleic acid concentrations was fitted to the hyperbolic relationship: [drawing 2] (2) where vNA is the apparent velocity of the reaction in the presence of nucleic acid, v is the velocity in its absence, KD is the apparent affinity for the nucleic acid and [NA] is the concentration of the nucleic acid substrate. The symbol KD is used, instead of Km, solely to reflect the fact that the NA is not a reactant (i.e. it is not converted into products) but only a cofactor of the reaction, without implying any assumption on the nature of the microscopic rates contributing to the KD value itself.

The nature of series [3]: ATPase time-course (burst kinetics). On the procedure: as §2
Variation of the ATPase reaction as a function of time was fitted to the mixed-exponential equation: [drawing 3] (3) where [P] is the concentration of products (pmols) at any given time point, t is time, Aburst is the burst amplitude, k burst is the rate of the exponential phase, k ss is the rate of the steady-state linear phase.

Series [4] relates to 18/36mer ds RNA oligonucleotide. Description: RNA helicase assay. The conditions noted are these: data not shown.
Excerpt: as §1
Reactions were performed in 50 mM TrisHCl pH 7.5, 1 mM DTT, 0.2 mg/ml BSA, 5% glycerol and 1 mM ATP, 10 mM MgCl2 at 37°C degrees for 10′ and stopped by adding EDTA 50 mM pH 8. Products were separated on a native 7% PAGE […] at 5 W in TBE buffer with 0.1% SDS at 4°C for 2 hours for RNA substrates, 4 hours for DNA substrates. Substrates and products were quantified by laser scanning densitometry (Thyphoon-TRIO, GE Healthcare). […]

The mark [5] stands for this setting: relative to absence of nucleic acid.

B1: DDX1: full length human DEAD-box protein DDX1, recombinant, largest known insertion between motifs I and Ia (protein, UniProt Q92499 1-740, looked up)
chain: MAAFSEMGVMPEIAQAVEEMDWLLPTDIQAESIPLILGGGDVLMAAETGSGKTGAFSIPVIQIVYETLKDQQEGKKGKTTIKTGASVLNKWQMNPYDRGSAFAIGSDGLCCQSREVKEWHGCRATKGLMKGKHYYEVSCHDQGLCRVGWSTMQASLDLGTDKFGFGFGGTGKKSHNKQFDNYGEEFTMHDTIGCYLDIDKGHVKFSKNGKDLGLAFEIPPHMKNQALFPACVLKNAELKFNFGEEEFKFPPKDGFVALSKAPDGYIVKSQHSGNAQVTQTKFLPNAPKALIVEPSRELAEQTLNNIKQFKKYIDNPKLRELLIIGGVAARDQLSVLENGVDIVVGTPGRLDDLVSTGKLNLSQVRFLVLDEADGLLSQGYSDFINRMHNQIPQVTSDGKRLQVIVCSATLHSFDVKKLSEKIMHFPTWVDLKGEDSVPDTVHHVVVPVNPKTDRLWERLGKSHIRTDDVHAKDNTRPGANSPEMWSEAIKILKGEYAVRAIKEHKMDQAIIFCRTKIDCDNLEQYFIQQGGGPDKKGHQFSCVCLHGDRKPHERKQNLERFKKGDVRFLICTDVAARGIDIHGVPYVINVTLPDEKQNYVHRIGRVGRAERMGLAISLVATEKEKVWYHVCSSRGKGCYNTRLKEDGGCTIWYNEMQLLSEIEEHLNCTISQVEPDIKVPVDEFDGKVTYGQKRAAGGGSYKGHVDILAPTVQELAALEKEAQTSFLHLGYLPNQLFRTF
modifications: full-length
notes: full length human DEAD-box protein DDX1, recombinant, largest known insertion between motifs I and Ia
With B1, in series [1] (DNA duplex with both 5′- and 3′-protruding ssDNA ends, 18/[5′-3′]-38 mer), the DNA unwinding entry is on record as “did not display DNA unwinding capability”. The k cat in series [2] (+DNA, oligo(dT)20) was determined as 0.035 ± 0.005 s⁻¹; in series [2] (+RNA, oligo(rU)20), 0.0633 ± 0.0083 s⁻¹; in series [2] (absence of nucleic acids) it was 0.0317 ± 0.005 s⁻¹. Also, the “Increase of catalytic efficiency (kcat/Km) by DNA” value in series [2] (setting [5]) is reported as 1.3 fold. The “Increase of catalytic efficiency (kcat/Km) by RNA” value in series [2] (setting [5]) is recorded as 2.6 fold.

B2: I-DDX3: double deletion DDX3 mutant (Δ1–159/Δ428–662), aa 160–427, helicase core of subdomain 1 (protein, UniProt O00571 160-427, looked up, fragment)
chain: FEKYDDIPVEATGNNCPPHIESFSDVEMGEIIMGNIELTRYTRPTPVQKHAIPIIKEKRDLMACAQTGSGKTAAFLLPILSQIYSDGPGEALRAMKENGRYGRRKQYPISLVLAPTRELAVQIYEEARKFSYRSRVRPCVVYGGADIGQQIRDLERGCHLLVATPGRLVDMMERGKIGLDFCKYLVLDEADRMLDMGFEPQIRRIVEQDTMPPKGVRHTMMFSATFPKEIQMLARDFLDEYIFLAVGRVGSTSENITQKVVWVEESDK
B2: the Aburst was 0.15 ± 0.02 µM in series [3] (+DNA, oligo(dT)20); 0.11 ± 0.03 µM in series [3] (+RNA, oligo(rU)20); 0.12 ± 0.02 µM in series [3] (absence of nucleic acids). For the same molecule, the k burst in series [3] (+DNA, oligo(dT)20) turned out to be 0.4 ± 0.6 min⁻¹; in series [3] (+RNA, oligo(rU)20), 0.4 ± 0.5 min⁻¹; in series [3] (absence of nucleic acids), 0.3 ± 0.4 min⁻¹. Further, the k ss amounted to 0.3 ± 0.05 min⁻¹ in series [3] (+DNA, oligo(dT)20); 0.4 ± 0.04 min⁻¹ in series [3] (+RNA, oligo(rU)20); 0.3 ± 0.05 min⁻¹ in series [3] (absence of nucleic acids). Also, in series [4], the RNA helicase activity result is on record as “did not show helicase activity”. The DNA helicase activity result in series [1] was “inactive”. Further, the k cat in series [2] (+DNA, oligo(dT)20) is 0.0233 ± 0.0067 s⁻¹; in series [2] (+RNA, oligo(rU)20) it was 0.0267 ± 0.0083 s⁻¹; in series [2] (absence of nucleic acids) it was 0.0183 ± 0.0033 s⁻¹. For the same molecule, in series [2], the “Intrinsic ability to hydrolyze ATP” value is recorded as “low but detectable ATPase activity”. For the same molecule, the “Stimulation of ATPase activity by nucleic acids” value in series [2] is given as “no stimulation”.

B3: N-DDX3: DDX3 mutant lacking the C-terminus (Δ428–662), aa 1–427, entire subdomain 1 plus linker (protein, UniProt O00571 1-427, looked up, fragment)
chain: MSHVAVENALGLDQQFAGLDLNSSDNQSGGSTASKGRYIPPHLRNREATKGFYDKDSSGWSSSKDKDAYSSFGSRSDSRGKSSFFSDRGSGSRGRFDDRGRSDYDGIGSRGDRSGFGKFERGGNSRWCDKSDEDDWSKPLPPSERLEQELFSGGNTGINFEKYDDIPVEATGNNCPPHIESFSDVEMGEIIMGNIELTRYTRPTPVQKHAIPIIKEKRDLMACAQTGSGKTAAFLLPILSQIYSDGPGEALRAMKENGRYGRRKQYPISLVLAPTRELAVQIYEEARKFSYRSRVRPCVVYGGADIGQQIRDLERGCHLLVATPGRLVDMMERGKIGLDFCKYLVLDEADRMLDMGFEPQIRRIVEQDTMPPKGVRHTMMFSATFPKEIQMLARDFLDEYIFLAVGRVGSTSENITQKVVWVEESDK
Consider B3, for which the Aburst in series [3] (+DNA, oligo(dT)20) came to 0.12 ± 0.01 µM; in series [3] (+RNA, oligo(rU)20), 0.13 ± 0.01 µM; in series [3] (absence of nucleic acids), 0.12 ± 0.02 µM. Moreover, the k burst in series [3] (+DNA, oligo(dT)20) is 0.5 ± 0.5 min⁻¹; in series [3] (+RNA, oligo(rU)20), 0.5 ± 0.5 min⁻¹; in series [3] (absence of nucleic acids) it was 1 ± 0.5 min⁻¹. Besides, the k ss in series [3] (+DNA, oligo(dT)20) is 0.33 ± 0.05 min⁻¹; in series [3] (+RNA, oligo(rU)20), 0.35 ± 0.06 min⁻¹; in series [3] (absence of nucleic acids) it was 0.4 ± 0.05 min⁻¹. Further, the RNA helicase activity entry in series [4] is listed as “did not show helicase activity”. In addition, in series [1], the DNA helicase activity entry was “inactive”. For the same molecule, the k cat in series [2] (+DNA, oligo(dT)20) is 0.0183 ± 0.0083 s⁻¹; in series [2] (+RNA, oligo(rU)20) it was 0.0163 ± 0.0005 s⁻¹; in series [2] (absence of nucleic acids), 0.013 ± 0.005 s⁻¹. The “Intrinsic ability to hydrolyze ATP” value in series [2] was “low but detectable ATPase activity”. In addition, the “Stimulation of ATPase activity by nucleic acids” value in series [2] is listed as “no stimulation”.

The values are drawn from publication PMC3093405, “A Motif Unique to the Human Dead-Box Protein DDX3 Is Important for Nucleic Acid Binding, ATP Hydrolysis, RNA/DNA Unwinding and HIV-1 Replication” (PLoS ONE, 2011).
